Residue numbers refer to the chain shown, from its start.
B1: MAdCAM Antibody Table 2 Clone 17 (antibody, human IgG1, V domains shown)
VH: QVQLVQSGAEVKKPGSSVKVSCKASGYTFTDYHIHWVRQAPGQGLEWMGGIVPRSGSTTYAQKFQGRVTITADESTSTAYMELSSLRSEDTAVYYCAKDESSGWYYFDYWGQGTLVTVSS
VL: DIVMTQSPLSLPVTPGEPASISCRSSQSLLHSNGYNYLDWYLQKPGQSPQLLIYSAYNRASGVPDRFSGSGSGTDFTLKISRVEAEDVGVYYCMQALQTPLTFGQGTKVEIK
B2: MAdCAM Antibody Table 2 Clone 20 (antibody, human IgG1, V domains shown)
VH: EVQLLESGGGLVQPGGSLRLSCAASGFTFSDSAMHWVRQAPGKGLEWVSAISGSGSTIYYADSVKGRFTISRDNSKNTLYLQMNSLRAEDTAVYYCVSDIAVAGHWYFDLWGRGTLVTVSS
VL: DIQMTQSPSSLSASVGDRVTITCRASQSISTFLNWYQQKPGKAPKLLIYAASRLEGGVPSRFSGSGSGTDFTLTISSLQPEDFATYYCQQANSFPLTFGPGTKVDIK
B3: MAdCAM Antibody Table 2 Clone 22 (antibody, human IgG1, V domains shown)
VH: EVQLLESGGGLVQPGGSLRLSCAASGFTFDDYAMHWVRQAPGKGLEWVSGISWNSGSIGYADSVKGRFTISRDNSKNTLYLQMNSLRAEDTAVYYCAKDIVAAGHYYYGMDVWGQGTTVTVSS
VL: DIQMTQSPSSLSASVGDRVTITCQASQDISNYLNWYQQKPGKAPKLLIYDASNLETGVPSRFSGSGSGTDFTLTISSLQPEDFATYYCQQSYSTPLTFGGGTKVEIK
B4: MAdCAM Antibody Table 2 Clone 23 (antibody, human IgG1, V domains shown)
VH: EVQLLESGGGLVQPGGSLRLSCAASGFTFDDYAMHWVRQAPGKGLEWVSYIDTSSSHLYYADSVKGRFTISRDNSKNTLYLQMNSLRAEDTAVYYCARDEAAAGYYGMDVWGQGTTVTVSS
VL: B3 VL with S26G, S91T, L96I, G100Q, V104L
B5: MAdCAM Antibody Table 2 Clone 24 (antibody, human IgG1, V domains shown)
VH: EVQLVESGGGLVKPGGSLRLSCAASGFTFSSYWMSWVRQAPGKGLEWVSRISSDGRITTYAAPVKGRFTISRDDSKNTLYLQMNSLKTEDTAVYYCARGTSYCTGGVCDIDYWGQGTLVTVSS
VL: B2 VL with S30G, T31R, F32N, A50S, R53N, E55Q, G56S, A91S, N92Y, F94I
B6: MAdCAM Antibody Table 2 Clone 29 (antibody, human IgG1, V domains shown)
VH: EVQLLESGGGLVQPGGSLRLSCAASGFTFSSYQMSWVRQAPGKGLEWVSYISSSSTYTNYADSVKGRFTISRDNSKNTLYLQMNSLRAEDTAVYYCARANSSSWYDWYFDLWGQGTLVTVSS
VL: not shown
B7: MAdCAM Antibody Table 2 Clone 46 (antibody, human IgG1, V domains shown)
VH: EVQLLESGGGLVQPGGSLRLSCAASGFSFSSYTMNWVRQAPGKGLEWVSFITSSSRTIYYADSVKGRFTISRDNSKNTLYLQMNSLRAEDTAVYYCARDRRGDYGDSWYFDLWGRGTLVTVSS
VL: EIVMTQSPATLSVSPGERATLSCRASQSVRNYLAWYQQKPGQAPRLLIYGASTRATGIPARFSGSGSGTEFTLTISSLQSEDFAVYYCQQYGSSPLTFGGGTKVEIK
B8: MAdCAM Antibody Table 2 Clone 65 (antibody, human IgG1, V domains shown)
VH: QVQLVQSGAEVKKPGASVKVSCKASGYTFTSYDINWVRQAPGQGLEWMGWMNPNSGNTGYAQKFQGRVTMTRDTSTSTVYMELSSLRSEDTAVYYCAKDSDYSNLLWDYWGQGTLVTVSS
VL: B3 VL with Q24R, S30T, Y32D, N34G, D50Q, N53S, T56S, S93T, T94I, G100Q
B9: MAdCAM Antibody Table 2 Clone 74 (antibody, human IgG1, V domains shown)
VH: QVQLVQSGAEVKKPGASVKVSCKASGYTFTGYYMHWVRQAPGQGLEWMGIINPSGGNTKYAQKFQGRVTMTRDTSTSTVYMELSSLRSEDTAVYYCTTADYYYYMDVWGKGTTVTVSS
VL: DIQMTQSPSSLSASVGDRVTITCRASQGISNYLAWYQQKPGKAPKLLIYAASSLQSGVPSRFSGSGSGTDFTLTISSLQPEDFATYYCQQYYSNADFGQGTKVEIK
B10: PD1AB18 (antibody, IgG1, V domains shown)
VH: QVQLVQSGAEVKKPGASVKVSCKASGYTFTDYAMHWVRQAPGQGLEWMGWLNPNSGNTGYAPKFQGRVTMTRDTSTSTVYMELSSLRSEDTAVYYCAAGLFIWGQGTMVTVSS
VL: DIQMTQSPSSLSASVGDRVTITCRASQSINRWLAWYQQKPGKAPKLLIYDASSLESGVPSRFSGSGSGTDFTLTISSLQPEDFATYYCQQSYSIPITFGQGTRLEIK
B11: PD1AB20 (antibody, IgG1, V domains shown)
VH: QVQLVQSGAEVKKPGASVKVSCKASGYTFSDHYMHWVRQAPGQGLEWMGTINPSGGRTSYAQKFQGRVTMTRDTSTSTVYMELSSLRSEDTAVYYCAADNGHASGWLYYYGMDVWGQGTTVTVSS
VL: DIQMTQSPSSLSASVGDRVTITCRASQSISNWVAWYQQKPGKAPKLLIYRASTLQSGVPSRFSGSGSGTDFTLTISSLQPEDFATYYCQQSHSLPLTFGPGTKVDIK
B12: PD1AB22 (antibody, IgG1, V domains shown)
VH: QVQLVQSGAEVKKPGASVKVSCKASGYTFSGYYMHWVRQAPGQGLEWMGVINPSGGSTSYAQKFQGRVTMTRDTSTSTVYMELSSLRSEDTAVYYCAEGFDYWGQGTLVTVSS
VL: EIVMTQSPATLSVSPGERATLSCRASQGVGRSLAWYQQKPGQAPRLLIYGASTRATGIPARFSGSGSGTEFTLTISSLQSEDFAVYYCQQYYTTPITFGQGTRLEIK
B13: PD1AB23 (antibody, IgG1, V domains shown)
VH: QVQLVQSGAEVKKPGASVKVSCKASGGTFSNYAISWVRQAPGQGLEWMGWMNPNSGNTGYAQKFQGRVTMTRDTSTSTVYMELSSLRSEDTAVYYCARVNYYYYYGMDVWGQGTTVTVSS
VL: DIQMTQSPSSLSASVGDRVTITCQASQDISNYLNWYQQKPGKAPKLLIYKASTLKSGVPSRFSGSGSGTDFTLTISSLQPEDFATYYCQQADNLPFTFGPGTKVDIK
B14: PD1AB4 (antibody, IgG1, V domains shown)
VH: B12 VH with T28S, S30T, G31T, V50I, E98S, F100W, D101V
VL: B3 VL with Q27R, S30K, N34A, D50A, N53S, E55Q, T56S, L96P, G100P, E105D
B15: PD1AB6 (antibody, IgG1, V domains shown)
VH: EVQLLESGGGLVQPGGSLRLSCAASGFTFSNYPMHWVRQAPGKGLEWVALISDDGTNEHYADSVKGRFTISRDNSKNTLYLQMNSLRAEDTAVYYCARDSKFANYYYYYDMDVWGQGTTVTVSS
VL: B3 VL with Q24R, D28S, S30N, N34S, G100P, E105D
B16: PD1AB7 (antibody, IgG1, V domains shown)
VH: QVQLVQSGAEVKKPGASVKVSCKASGYSFTGHYIHWVRQAPGQGLEWMGIINPNGGSTTYAQKLQGRVTMTRDTSTSTVYMELSSLRSEDTAVYYCARGKFDFYGDYVTAFDIWGQGTMVTVSS
VL: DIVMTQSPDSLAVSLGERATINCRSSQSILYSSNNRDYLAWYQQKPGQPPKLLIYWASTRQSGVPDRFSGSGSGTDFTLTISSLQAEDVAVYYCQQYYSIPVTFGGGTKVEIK

These binders were tested against T1, mouse MAdCAM expressed on cells (mouse, UniProt Q61826 22-405) (assay: cell binding).
T1 construct: whole, on cells
T1 sequence (looked up): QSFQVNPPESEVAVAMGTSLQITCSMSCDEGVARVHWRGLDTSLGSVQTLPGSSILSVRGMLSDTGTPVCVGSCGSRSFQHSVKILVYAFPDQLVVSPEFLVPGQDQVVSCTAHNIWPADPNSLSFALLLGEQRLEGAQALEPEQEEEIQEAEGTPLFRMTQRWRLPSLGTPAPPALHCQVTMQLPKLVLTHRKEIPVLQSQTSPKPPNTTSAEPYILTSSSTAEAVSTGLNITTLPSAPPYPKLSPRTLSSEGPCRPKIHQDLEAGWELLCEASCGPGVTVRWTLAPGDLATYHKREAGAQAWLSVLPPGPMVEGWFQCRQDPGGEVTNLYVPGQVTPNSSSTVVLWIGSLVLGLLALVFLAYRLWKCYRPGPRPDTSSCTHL
B1: no binding. B2: no binding. B3: no binding. B4: no binding. B5: no binding. B6: no binding. B7: no binding. B8: no binding. B9: no binding.

The binders below were run against T2, human MAdCAM expressed on cells (human, UniProt Q13477 19-382) (assay: cell binding).
T2 construct: whole, on cells; also called MADCAM1
T2 sequence (looked up): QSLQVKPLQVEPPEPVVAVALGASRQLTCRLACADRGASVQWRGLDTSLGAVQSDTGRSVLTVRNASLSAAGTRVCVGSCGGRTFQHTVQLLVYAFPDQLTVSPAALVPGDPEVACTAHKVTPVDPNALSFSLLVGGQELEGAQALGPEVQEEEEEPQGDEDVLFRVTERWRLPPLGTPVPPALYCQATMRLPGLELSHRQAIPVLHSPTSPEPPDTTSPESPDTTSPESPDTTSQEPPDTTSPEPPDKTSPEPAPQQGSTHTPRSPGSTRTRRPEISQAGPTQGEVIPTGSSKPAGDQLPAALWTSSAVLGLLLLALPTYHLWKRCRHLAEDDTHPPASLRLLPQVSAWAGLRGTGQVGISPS
B1: binds. B2: binds. B3: binds. B4: binds. B5: binds. B6: binds. B7: binds. B8: binds. B9: binds.

What follows are binders tested against T3, mouse PD-1 on cells (mouse, UniProt Q02242 25-288) (assay: cell-based or functional assay).
T3 sequence (looked up): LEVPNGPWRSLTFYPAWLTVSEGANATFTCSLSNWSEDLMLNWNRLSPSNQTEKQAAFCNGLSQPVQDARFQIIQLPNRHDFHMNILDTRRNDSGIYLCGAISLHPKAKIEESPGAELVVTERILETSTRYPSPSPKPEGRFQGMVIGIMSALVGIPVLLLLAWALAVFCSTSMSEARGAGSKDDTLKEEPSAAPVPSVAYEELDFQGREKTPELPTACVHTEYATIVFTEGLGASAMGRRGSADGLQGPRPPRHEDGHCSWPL
B10 was tested, and the “Mouse agonist-CTG: IC50, IgG1” value was < 10 nM. B11 was tested, and the “Mouse agonist-CTG: IC50, IgG1” value was < 10 nM. For B12, the “Mouse agonist-CTG: IC50, IgG1” value was < 10 nM. With B13 the “Mouse agonist-CTG: IC50, IgG1” value was < 10 nM. In the case of B14, the “Mouse agonist-CTG: IC50, IgG1” value is reported as < 10 nM. In the case of B15, the “Mouse agonist-CTG: IC50, IgG1” value is reported as < 10 nM. With B16 the “Mouse agonist-CTG: IC50, IgG1” value was < 10 nM.

What follows are binders tested against T4, recombinant mouse MAdCAM-1 (mouse, UniProt Q61826 22-365, limits assumed) (assay: Octet).
T4 construct: also called mMAdCAM-1; mouse MAdCAM-Fc
T4 sequence (looked up): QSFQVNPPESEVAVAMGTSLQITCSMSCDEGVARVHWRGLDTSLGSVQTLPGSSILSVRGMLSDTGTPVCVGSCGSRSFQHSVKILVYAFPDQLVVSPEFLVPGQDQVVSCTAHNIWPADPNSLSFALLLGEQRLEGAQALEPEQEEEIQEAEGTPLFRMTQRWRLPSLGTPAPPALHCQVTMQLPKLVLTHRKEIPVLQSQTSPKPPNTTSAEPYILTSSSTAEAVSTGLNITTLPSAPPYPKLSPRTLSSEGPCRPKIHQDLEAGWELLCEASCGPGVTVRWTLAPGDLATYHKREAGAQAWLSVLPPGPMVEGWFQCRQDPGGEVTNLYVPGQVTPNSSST
B1: no binding. B2: no binding. B3: no binding. B4: no binding. B5: no binding. B6: no binding. B7: no binding. B8: no binding. B9: no binding.
